Drawing on patent US20110178027A1 (published 2011), this text covers Ki for 7 molecules.

Read-outs that look alike come from different tables or passages of the source. No end group written: not given here.

The target of one assay is T1, PC7 (UniProt Q16549 142-667).
T1 chain: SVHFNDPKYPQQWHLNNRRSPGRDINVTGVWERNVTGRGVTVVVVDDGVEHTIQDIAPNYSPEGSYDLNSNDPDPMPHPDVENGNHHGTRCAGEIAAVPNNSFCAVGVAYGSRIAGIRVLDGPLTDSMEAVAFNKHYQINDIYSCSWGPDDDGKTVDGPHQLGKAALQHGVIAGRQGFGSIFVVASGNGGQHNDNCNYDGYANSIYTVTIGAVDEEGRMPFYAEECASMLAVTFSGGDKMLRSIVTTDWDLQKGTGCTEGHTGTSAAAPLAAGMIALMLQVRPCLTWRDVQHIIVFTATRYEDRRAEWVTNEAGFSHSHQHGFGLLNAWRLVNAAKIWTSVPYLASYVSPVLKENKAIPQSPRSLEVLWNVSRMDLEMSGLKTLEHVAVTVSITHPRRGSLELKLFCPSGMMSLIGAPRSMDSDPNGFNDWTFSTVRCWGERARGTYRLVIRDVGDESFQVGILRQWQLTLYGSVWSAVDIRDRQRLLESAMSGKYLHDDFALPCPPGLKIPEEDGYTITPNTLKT
As to the kind of experiment: enzyme inhibition.

For assay [1], the target named is T2, furin (UniProt P09958 108-715). As to the kind of experiment: enzyme inhibition.
T2 sequence (P09958 108-715): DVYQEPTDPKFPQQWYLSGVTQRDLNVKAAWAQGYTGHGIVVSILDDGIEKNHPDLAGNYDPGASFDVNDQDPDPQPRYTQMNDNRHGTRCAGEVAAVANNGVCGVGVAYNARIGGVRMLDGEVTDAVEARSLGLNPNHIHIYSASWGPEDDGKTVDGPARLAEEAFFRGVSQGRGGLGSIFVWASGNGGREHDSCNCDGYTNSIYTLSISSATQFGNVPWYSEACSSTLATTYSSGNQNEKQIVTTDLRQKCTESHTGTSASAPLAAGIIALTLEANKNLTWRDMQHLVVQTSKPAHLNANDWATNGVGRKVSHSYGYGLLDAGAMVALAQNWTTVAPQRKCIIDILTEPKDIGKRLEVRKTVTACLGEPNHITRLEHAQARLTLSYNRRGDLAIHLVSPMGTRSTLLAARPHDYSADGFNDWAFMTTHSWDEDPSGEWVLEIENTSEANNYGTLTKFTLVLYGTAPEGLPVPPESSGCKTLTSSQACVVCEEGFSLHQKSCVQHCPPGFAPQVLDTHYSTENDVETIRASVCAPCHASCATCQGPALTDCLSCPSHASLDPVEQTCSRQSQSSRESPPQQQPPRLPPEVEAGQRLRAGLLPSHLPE
The target in the next assay is T3, PC2 (UniProt P16519 110-638).
T3 chain: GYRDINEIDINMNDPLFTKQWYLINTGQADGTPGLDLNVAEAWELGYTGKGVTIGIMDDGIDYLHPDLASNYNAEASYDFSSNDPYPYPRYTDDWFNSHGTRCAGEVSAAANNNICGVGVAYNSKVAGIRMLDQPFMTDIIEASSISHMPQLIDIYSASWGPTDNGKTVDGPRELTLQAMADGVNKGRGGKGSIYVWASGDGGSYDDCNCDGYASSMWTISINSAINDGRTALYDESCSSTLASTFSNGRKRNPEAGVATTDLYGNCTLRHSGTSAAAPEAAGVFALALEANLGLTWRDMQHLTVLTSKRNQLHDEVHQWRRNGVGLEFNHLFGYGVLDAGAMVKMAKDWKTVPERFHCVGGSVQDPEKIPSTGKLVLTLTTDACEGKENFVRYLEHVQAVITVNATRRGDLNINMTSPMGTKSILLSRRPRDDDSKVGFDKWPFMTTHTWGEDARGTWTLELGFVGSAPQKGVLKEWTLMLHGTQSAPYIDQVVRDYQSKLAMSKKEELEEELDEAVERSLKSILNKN
Put plainly: enzyme inhibition.

The target of a further assay is T4, PC1/3 (UniProt P29120 111-753).
T4 chain: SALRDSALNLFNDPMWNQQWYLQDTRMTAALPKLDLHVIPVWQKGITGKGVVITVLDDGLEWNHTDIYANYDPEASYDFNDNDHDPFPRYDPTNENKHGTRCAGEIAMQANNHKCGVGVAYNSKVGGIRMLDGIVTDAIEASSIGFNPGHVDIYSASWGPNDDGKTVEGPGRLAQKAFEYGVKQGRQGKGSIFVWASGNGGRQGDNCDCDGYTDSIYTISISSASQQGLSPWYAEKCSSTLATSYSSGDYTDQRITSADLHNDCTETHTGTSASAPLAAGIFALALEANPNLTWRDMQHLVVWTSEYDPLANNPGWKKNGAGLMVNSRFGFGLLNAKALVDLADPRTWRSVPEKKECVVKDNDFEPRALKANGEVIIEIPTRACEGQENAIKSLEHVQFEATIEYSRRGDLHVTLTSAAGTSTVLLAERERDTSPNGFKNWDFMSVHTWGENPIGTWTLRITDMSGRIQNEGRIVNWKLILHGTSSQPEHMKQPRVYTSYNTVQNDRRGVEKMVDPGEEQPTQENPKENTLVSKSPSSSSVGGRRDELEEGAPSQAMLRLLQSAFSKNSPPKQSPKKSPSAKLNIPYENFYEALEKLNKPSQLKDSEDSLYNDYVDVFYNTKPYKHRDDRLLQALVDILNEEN
Put plainly: enzyme inhibition.

For another assay, the target named is T5, PC5/6 (UniProt Q92824 115-913).
T5 chain: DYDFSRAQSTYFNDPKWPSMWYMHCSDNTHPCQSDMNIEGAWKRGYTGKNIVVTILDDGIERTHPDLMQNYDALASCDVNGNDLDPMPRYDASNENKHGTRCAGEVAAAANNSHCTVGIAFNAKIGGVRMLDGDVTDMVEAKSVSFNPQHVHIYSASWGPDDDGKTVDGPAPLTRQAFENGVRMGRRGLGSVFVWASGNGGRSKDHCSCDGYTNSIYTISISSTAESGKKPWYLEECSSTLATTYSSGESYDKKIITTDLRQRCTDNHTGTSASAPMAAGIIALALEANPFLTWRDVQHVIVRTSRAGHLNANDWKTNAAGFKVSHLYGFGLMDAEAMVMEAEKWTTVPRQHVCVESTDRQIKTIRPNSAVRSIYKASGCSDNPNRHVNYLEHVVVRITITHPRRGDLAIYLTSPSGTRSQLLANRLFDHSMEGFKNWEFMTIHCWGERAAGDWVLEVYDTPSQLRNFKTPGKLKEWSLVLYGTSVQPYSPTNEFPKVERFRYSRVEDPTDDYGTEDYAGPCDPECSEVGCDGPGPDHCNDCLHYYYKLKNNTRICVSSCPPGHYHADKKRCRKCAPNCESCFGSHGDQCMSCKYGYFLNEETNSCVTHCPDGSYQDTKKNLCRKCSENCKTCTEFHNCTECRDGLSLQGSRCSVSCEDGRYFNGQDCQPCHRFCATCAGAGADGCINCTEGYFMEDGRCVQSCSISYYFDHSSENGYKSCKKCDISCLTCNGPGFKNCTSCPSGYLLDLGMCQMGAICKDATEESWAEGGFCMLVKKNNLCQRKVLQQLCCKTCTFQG
Put plainly: enzyme inhibition.

Assay [2] concerns the target T2, furin.
Another assay has as its target T6, PACE4 (UniProt P29122 150-969).
T6 chain: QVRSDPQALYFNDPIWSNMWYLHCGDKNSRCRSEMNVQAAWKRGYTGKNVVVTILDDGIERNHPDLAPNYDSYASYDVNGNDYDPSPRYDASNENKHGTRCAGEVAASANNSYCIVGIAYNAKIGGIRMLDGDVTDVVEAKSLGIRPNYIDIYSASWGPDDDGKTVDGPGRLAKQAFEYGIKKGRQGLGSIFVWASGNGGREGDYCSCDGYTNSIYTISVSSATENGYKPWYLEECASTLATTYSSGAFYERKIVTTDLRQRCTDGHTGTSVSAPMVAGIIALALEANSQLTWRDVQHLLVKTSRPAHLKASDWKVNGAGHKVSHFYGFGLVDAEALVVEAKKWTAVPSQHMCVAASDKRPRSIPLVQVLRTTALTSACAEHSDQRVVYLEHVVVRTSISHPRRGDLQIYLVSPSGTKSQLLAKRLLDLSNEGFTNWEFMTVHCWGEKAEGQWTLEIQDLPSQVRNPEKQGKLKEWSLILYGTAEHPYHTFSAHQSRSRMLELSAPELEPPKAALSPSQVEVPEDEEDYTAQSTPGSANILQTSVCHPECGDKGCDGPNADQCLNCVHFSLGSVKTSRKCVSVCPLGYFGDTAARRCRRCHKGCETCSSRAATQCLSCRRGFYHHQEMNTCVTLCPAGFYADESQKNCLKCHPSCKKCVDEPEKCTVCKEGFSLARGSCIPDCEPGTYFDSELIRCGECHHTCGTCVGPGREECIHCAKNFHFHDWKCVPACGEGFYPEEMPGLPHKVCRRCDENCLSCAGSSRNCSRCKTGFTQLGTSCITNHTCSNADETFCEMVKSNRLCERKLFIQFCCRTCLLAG
As to the kind of experiment: enzyme inhibition.

A word on the Ki: it is the dissociation constant of the complex between target and ligand, obtained from inhibition or displacement. A higher Ki goes with lower affinity. LLLRVKR-NH2 [LLLRVKR-NH2]: the Ki with PC7 stood at 50 nM; with furin [1], 980 nM; with PC2, 12900 nM; with PC1/3 it was 240 nM; with PC5/6, 340 nM.
Consider LLRVKR-NH2 [LLRVKR-NH2], for which the Ki with furin [2] worked out at 540 nM; with PC7, 100 nM; with PC2, 3270 nM; with PC1/3, 170 nM; in the assay with PC5/6 it was 130 nM.
Turning to LLLLRVKR-NH2 [LLLLRVKR-NH2], in the assay with furin [2], the affinity corresponds to a Ki of 1140 nM.
In the case of LLLLLLRVKR-NH2 [LLLLLLRVKR-NH2], the Ki in the assay with PC7 amounted to 30 nM; in the assay with furin [1], 1390 nM; with PC2, 4550 nM; in the assay with PC1/3, 1160 nM.
Turning to RVKR-NH2 [RVKR-NH2], the Ki with PC7 was found to be 10400 nM; in the assay with PACE4, 4340 nM; in the assay with furin [1], 8110 nM; with PC1/3, 1450 nM; with PC5/6 it was 5570 nM.
LRVKR-NH2 [LRVKR-NH2]: the Ki in the assay with PC7 is 2490 nM; with furin [1], 550 nM; with PC1/3, 580 nM; with PC5/6, 360 nM.
As for LLLLLRVKR-NH2 [LLLLLRVKR-NH2], the Ki in the assay with PC7 was 40 nM; with furin [1], 1500 nM; with PC2, 4830 nM; in the assay with PC1/3, 370 nM.
